What was measured:
Assay in all cases: pull-down
[1] = target: T1, His6-TwinStrep-Csy4* (inactive Csy4) H29A;S50C (Pseudomonas aeruginosa) (UniProt Q02MM2); conditions: no imidazole; RNA folded in 20 mM Tris-HCl pH 7.5, 100 mM (salt not given), 3 mM MgCl2; binding 90 min at 4 C on beads; RNA binding buffer 20 mM Tris-HCl pH 7.5, 100 mM …
T1 sequence: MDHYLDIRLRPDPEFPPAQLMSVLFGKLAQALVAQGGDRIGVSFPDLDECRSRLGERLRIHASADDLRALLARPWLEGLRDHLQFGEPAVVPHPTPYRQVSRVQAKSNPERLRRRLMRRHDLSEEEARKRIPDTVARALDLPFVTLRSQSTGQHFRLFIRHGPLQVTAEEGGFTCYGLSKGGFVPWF

[2] = target: T2, His6-Myc-Csy4* (inactive Csy4) H29A;S50C (Pseudomonas aeruginosa) (UniProt Q02MM2); conditions: no imidazole; 'almost 50%'; RNA folded in 20 mM Tris-HCl pH 7.5, 100 mM (salt not given), 3 mM MgCl2; binding 90 min at 4 C on beads; RNA binding buffer 20 mM Tris-HCl pH 7.5, 100 mM …
T2 sequence: T1 sequence

[3] = target: T3, His6-MBP-Csy4* (inactive Csy4) H29A;S50C (Pseudomonas aeruginosa) (UniProt Q02MM2); conditions: no imidazole; RNA folded in 20 mM Tris-HCl pH 7.5, 100 mM (salt not given), 3 mM MgCl2; binding 90 min at 4 C on beads; RNA binding buffer 20 mM Tris-HCl pH 7.5, 100 mM …
T3 sequence: T1 sequence

## GGGUUCACUGCCGUAUAGGCAGAUAUAGAAGGUAGUGGAUCUCGACAGGGUUGAUAUGAGAACACACGAGUAAUCAACGGCUGUAAUGACGCUACGUCAUUGUUACAGCUCUCGUUUUCAUGUGUUCUCAGGUCACCCCUGCUGAGCUCUUUCUCUACCGUAAUUAC [Csy4-hairpin-tagged pri-miR398b-SL]
[1]
  binding signal (% transcript depleted from supernatant): < 10
[2]
  binding signal (% transcript depleted from supernatant): 50
[3]
  binding signal (% transcript depleted from supernatant): 80

— article PMC9409100
